Data: patent CN106957364A (UNIV SHANGHAI JIAOTONG, dated 2017)

Biological target: T1, hFcRn&b2M蛋白 (human, UniProt P55899 24-297; P61769 21-119, limits assumed)
T1 construct: also called hFcRn&β2M; hFcRn蛋白
Assay: affinity measurement at pH 6.0, hFcRn&b2M as ligand, scFv as sample (method not named)

T1 sequence (P55899 24-297 limits assumed, chain 1 of 2): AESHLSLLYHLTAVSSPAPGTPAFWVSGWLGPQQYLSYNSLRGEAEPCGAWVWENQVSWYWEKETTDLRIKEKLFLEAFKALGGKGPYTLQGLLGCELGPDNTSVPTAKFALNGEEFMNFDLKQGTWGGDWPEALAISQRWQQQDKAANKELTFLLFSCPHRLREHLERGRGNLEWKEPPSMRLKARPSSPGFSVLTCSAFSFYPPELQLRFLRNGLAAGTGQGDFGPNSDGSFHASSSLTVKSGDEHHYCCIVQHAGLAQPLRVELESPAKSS
T1 sequence (P61769 21-119 limits assumed, chain 2 of 2): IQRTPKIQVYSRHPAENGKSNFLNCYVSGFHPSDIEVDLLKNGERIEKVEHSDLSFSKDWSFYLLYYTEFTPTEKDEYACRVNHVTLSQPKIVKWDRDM

B1: 单链抗体FnAb12 (scFv)
scFv: DIQLTQSPSSLSASVGDRVTLTCQATQDIDNNLNWYQQKPGKAPKLLIYDASNLETGVPSRFSGSGSGTDFTFTISDLQPEDVATYYCQQYYNLPLTFGGGTKVDIKRSRGGGGSGGGGSGGGGSLEMAEVQLVQSGAEVKKPGASVKVSCKASGYTFTSYDINWVRQATGQGLEWMGWMNPNSGNTGYAQKFQGRVTMTRNTSISTAYMELSSLRSEDTAVYYCARGVDLGDGWGQGTLVTVSS
notes: Single-chain antibody from a phage library; also called FnAb12抗体; 单克隆抗体FnAb12
B1 gave a Kd of 15 nM.
